Assay results as given in patent US20220025344A1 (Novartis, published 2022).
“And” between values parts separate entries of the source, which are not always exact repeats. Equal entries are not always repeated.

T1: Recombinant human LPL (mature human lipoprotein lipase, amino acids 28-475) (human, UniProt P06858 28-475)
T1 sequence: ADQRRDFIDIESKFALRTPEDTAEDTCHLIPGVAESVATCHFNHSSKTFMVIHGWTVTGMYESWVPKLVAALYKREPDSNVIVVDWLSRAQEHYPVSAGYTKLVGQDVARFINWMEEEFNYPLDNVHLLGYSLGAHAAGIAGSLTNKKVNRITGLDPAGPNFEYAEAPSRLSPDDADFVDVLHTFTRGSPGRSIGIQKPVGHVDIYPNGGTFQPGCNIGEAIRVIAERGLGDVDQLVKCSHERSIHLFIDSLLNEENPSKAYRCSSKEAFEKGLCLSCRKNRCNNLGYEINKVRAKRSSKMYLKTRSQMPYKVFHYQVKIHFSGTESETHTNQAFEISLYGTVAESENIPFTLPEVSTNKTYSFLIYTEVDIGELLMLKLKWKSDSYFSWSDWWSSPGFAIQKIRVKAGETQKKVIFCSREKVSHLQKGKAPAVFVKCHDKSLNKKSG

T2: Co-expressed human LPL/soluble GPIHBP1 complex (human, UniProt P06858 28-475; Q8IV16 21-151, biotin at the C-terminal end of GPIHBP1 in the ELISA and SPR assays)
T2 sequence 1: T1 sequence
T2 sequence 2: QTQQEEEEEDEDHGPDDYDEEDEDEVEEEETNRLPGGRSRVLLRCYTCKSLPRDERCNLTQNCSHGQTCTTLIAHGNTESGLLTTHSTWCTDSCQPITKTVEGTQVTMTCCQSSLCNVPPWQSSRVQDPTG

T3: hANGPTL4-myc (human, UniProt Q9BY76)
T3 construct: residues 26-406; It is a different tag version from m7; also called ANGPTL4(26-406)-6HIS-myc
T3 sequence (single chain, looked up): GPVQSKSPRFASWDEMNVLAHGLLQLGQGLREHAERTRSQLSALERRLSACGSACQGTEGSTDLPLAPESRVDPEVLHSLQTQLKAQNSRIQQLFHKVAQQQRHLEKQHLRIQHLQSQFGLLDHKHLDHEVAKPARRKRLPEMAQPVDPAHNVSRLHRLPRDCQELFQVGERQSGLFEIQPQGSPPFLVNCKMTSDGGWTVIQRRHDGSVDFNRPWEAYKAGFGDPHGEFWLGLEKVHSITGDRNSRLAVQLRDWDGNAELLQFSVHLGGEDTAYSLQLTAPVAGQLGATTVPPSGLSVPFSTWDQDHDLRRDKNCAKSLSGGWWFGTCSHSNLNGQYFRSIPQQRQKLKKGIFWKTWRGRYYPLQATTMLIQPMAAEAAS

B1: Human ANGPTL4(26-406)-FLAG-6HIS-Avi (ligand)
chain: GPVQSKSPRFASWDEMNVLAHGLLQLGQGLREHAERTRSQLSALERRLSACGSACQGTEGSTDLPLAPESRVDPEVLHSLQTQLKAQNSRIQQLFHKVAQQQRHLEKQHLRIQHLQSQFGLLDHKHLDHEVAKPARRKRLPEMAQPVDPAHNVSRLHRLPRDCQELFQVGERQSGLFEIQPQGSPPFLVNCKMTSDGGWTVIQRRHDGSVDFNRPWEAYKAGFGDPHGEFWLGLEKVHSITGDRNSRLAVQLRDWDGNAELLQFSVHLGGEDTAYSLQLTAPVAGQLGATTVPPSGLSVPFSTWDQDHDLRRDKNCAKSLSGGWWFGTCSHSNLNGQYFRSIPQQRQKLKKGIFWKTWRGRYYPLQATTMLIQPMAAEAASDYKDDDDKHHHHHHGGGLNDIFEAQKIEWHE
B2: LPL(28-475)-(G4S)4-hGPIHBP1(21-151)-FLAG-HIS6-Avi (enzyme)
chain: ADQRRDFIDIESKFALRTPEDTAEDTCHLIPGVAESVATCHFNHSSKTFMVIHGWTVTGMYESWVPKLVAALYKREPDSNVIVVDWLSRAQEHYPVSAGYTKLVGQDVARFINWMEEEFNYPLDNVHLLGYSLGAHAAGIAGSLTNKKVNRITGLDPAGPNFEYAEAPSRLSPDDADFVDVLHTFTRGSPGRSIGIQKPVGHVDIYPNGGTFQPGCNIGEAIRVIAERGLGDVDQLVKCSHERSIHLFIDSLLNEENPSKAYRCSSKEAFEKGLCLSCRKNRCNNLGYEINKVRAKRSSKMYLKTRSQMPYKVFHYQVKIHFSGTESETHTNQAFEISLYGTVAESENIPFTLPEVSTNKTYSFLIYTEVDIGELLMLKLKWKSDSYFSWSDWWSSPGFAIQKIRVKAGETQKKVIFCSREKVSHLQKGKAPAVFVKCHDKSLNKKSGGGGGSGGGGSGGGGSGGGGSQTQQEEEEEDEDHGPDDYDEEDEDEVEEEETNRLPGGRSRVLLRCYTCKSLPRDERCNLTQNCSHGQTCTTLIAHGNTESGLLTTHSTWCTDSCQPITKTVEGTQVTMTCCQSSLCNVPPWQSSRVQDPTGDYKDDDDKHHHHHHGGGLNDIFEAQKIEWHE
modifications: biotin on the C-terminal AviTag in the ELISA and SPR assays
notes: also called LPL-GPIHBP1 fusion polypeptide; LPL-GPIHBP1 fusion
B3: Human soluble GPIHBP1(21-151)-FLAG-HIS6-Avi (receptor)
chain: QTQQEEEEEDEDHGPDDYDEEDEDEVEEEETNRLPGGRSRVLLRCYTCKSLPRDERCNLTQNCSHGQTCTTLIAHGNTESGLLTTHSTWCTDSCQPITKTVEGTQVTMTCCQSSLCNVPPWQSSRVQDPTGDYKDDDDKHHHHHHGGGLNDIFEAQKIEWHE
modifications: biotin on the C-terminal AviTag (BirA, site-specific) where used for immobilisation on streptavidin
notes: also called solGPIHBP1 with C-terminal FHA tag; C-terminally biotinylated GPIHBP1

Legend:
[1] = target: Co-expressed human LPL/soluble GPIHBP1 complex (human) (UniProt P06858); experiment: cell-based or functional assay
[2] = target: Recombinant human LPL (mature human lipoprotein lipase, amino acids 28-475) (human) (UniProt P06858); experiment: cell-based or functional assay
[3] = target: T1, Recombinant human LPL (mature human …); experiment: cell-based or functional assay
[4] = target: T2, Co-expressed human LPL/soluble GPIHBP1 …; experiment: cell-based or functional assay
[5] = target: B2; experiment: cell-based or functional assay
[6] = target: T2, Co-expressed human LPL/soluble GPIHBP1 …; experiment: TR-FRET dissociation of the LPL/GPIHBP1 complex (10 nM 6HIS-hLPL-HA-Flag / biotinylated hGPIHBP1-Avi, anti-HA-Tb / streptavidin-D2). ANGPTL4 binds LPL and displaces GPIHBP1. [cont.) C) right graph]
Description: The assay for TR-FRET based detection of ANGPTL4 binding to the LPL/GPIHBP1 complex was carried out in 384-well plates (ProxiPlate™ 384-well white, Perkin Elmer, USA) in a final volume of 20 μl. The composition of the assay buffer was 20 mM HEPES pH=7.4, 100 mM NaCl, 10% HI-FBS, 5 mM CaCl₂). The assay procedure was as follows: First 4 μL/well of 5x 6HIS-hLPL-HA-Flag/biotinylated hGPIHBP1-Avi complex (50 nM stock in assay buffer, 10 nM complex final concentration) was added to 8 μL/well buffer. Then 4 μL/well 5x non-biotinylated ANGPTL4(26-406)-Flag-6HIS-Avi (final concentrations of 1 to 1000 nM) was added and incubation was carried out at room temperature for 1 hour. After incubation 4 μL 5× anti-HA-Tb/[…] (Cisbio, diluted in assay buffer to 1.25 nM anti-HA-Tb/50 nM streptavidin-D2 stock concentration) (0.3125 nM anti-HA-Tb/10 nM streptavidin-D2 final concentration) was added and the mixture was incubated at room temperature for 3 hours. Finally the plate was read on an Envision plate reader Ex=320 Em=665 Em=615.

[7] = target: T2, Co-expressed human LPL/soluble GPIHBP1 …; experiment: TR-FRET dissociation of the LPL/GPIHBP1 complex: ANGPTL4 binds the LPL of the complex and displaces the labelled GPIHBP1. FRET ratio falls from about 20000 to about 1000 between log -1 and log 3 (nM). [cont.) D]
[8] = target: B1; experiment: MSD ELISA: 10 nM biotinylated fusion incubated with ANGPTL4 and captured on streptavidin; bound ANGPTL4 detected with an ANGPTL4 Ab
Description: LPL-GPIHBP1 complex or LPL-GPIHBP1 fusion (10 nM, site-specifically biotinylated at the C-terminal end of GPIHBP1) were incubated with increasing concentrations of ANGPTL4 (a 12 point 2-fold serial dilution with highest concentration of 100 nM). The reaction mix was then applied onto a streptavidin coated MSD. The presence of LPL and ANGPTL4 was detected using an LPL or ANGPTL4 specific Abs, which were subsequently quantified using sulpho-tagged secondary Ab. To generate a signal, lx MSD read buffer T was added and the plate was developed using a Sector Imager 6000 (Meso Scale Discovery).
First, the co-expressed LPL/GPIHBP1 complex or the LPL-GPIHBP1 fusion polypeptide was immobilized on a streptavidin surface through C-terminally biotinylated GPIHBP1. The proteins were then incubated with ANGPTL4 and changes in bound ANGPTL4 and LPL were monitored with respective high affinity antibodies. A schematic representation of the assay is depicted on top of FIG. 3, panel A. When the complex was incubated with ANGPTL4, displacement of LPL from the co-expressed LPL/GPIHBP1 complex as function of ANGPTL4 concentration was observed. On the other hand, ANGPTL4 was unable to displace LPL from the covalently linked LPL-GPIHBP1 fusion polypeptide (FIG. 3, panel A, left side). Correspondingly, when bound ANGPTL4 was probed, ANGPTL4 was not captured by the co-expressed LPL/GPIHBP1 complex. […]

hANGPTL4-myc = target: T3, hANGPTL4-myc; experiment: TR-FRET binding assay (anti-HA-Tb / anti-myc-D2). Target taken from paragraph 181 (fusion polypeptide); the methods instead describe a 6HIS-hLPL-HA-Flag/hGPIHBP1-Avi complex at 10 nM. [cont.) C) left graph]
[9] = target: T2, Co-expressed human LPL/soluble GPIHBP1 …; experiment: TR-FRET dissociation of the LPL/GPIHBP1 complex: free hGPIHBP1-FHA binds the LPL of the complex and competes with the labelled GPIHBP1. FRET ratio falls from about 20000 to about 1000 between log -1 and log 3 (nM). [cont.) D]

Human ANGPTL3(17-460)-FLAG-HIS6-Avi (from UniProt Q9Y5C1 17-460) (ligand)
IC50 of ANGPTL3 inactivation of LPL enzymatic activity [1]: 0.3 µM
fold resistance to ANGPTL3 inactivation against LPL alone [1]: > 37 fold
IC50 of ANGPTL3 inactivation of LPL enzymatic activity [2]: 0.007 µM and 0.008 µM

B1
IC50 of ANGPTL4 inactivation of LPL enzymatic activity [3]: 0.003 µM
IC50 of ANGPTL4 inactivation of LPL enzymatic activity [4]: 0.019 µM
fold resistance to ANGPTL4 inactivation against LPL alone [4]: > 6 fold
IC50 of ANGPTL4 inactivation of LPL enzymatic activity [5]: 0.107 µM
fold increase of the IC50 of ANGPTL4 inactivation against LPL alone [5]: > 35 fold
fold increase of the IC50 of ANGPTL4 inactivation against the co-expressed LPL/GPIHBP1 complex [5]: > 5 fold
IC50 (read off the curve) [6]: ~0.02 µM
IC50 [7]: 0.018 µM

B2
binding result [8]: binds
binding result (hANGPTL4-myc): binds

B3
IC50 [9]: 0.015 µM
